# Laboratory results published in patent US20250154231A1.
# Columns and labels:
# Assay in all cases: cell-based or functional assay
# [1] = target: SARS-CoV-2 Omicron BA.1 spike (S) protein, pseudovirus construct (SARS-CoV-2) (UniProt P0DTC2)
# [2] = target: SARS-CoV-2 Omicron BA.3 spike (S) protein, pseudovirus construct (SARS-CoV-2) (UniProt P0DTC2)
# [3] = target: SARS-CoV-2 Omicron BA.1.1 spike (S) protein, pseudovirus construct (SARS-CoV-2) (UniProt P0DTC2)
# [4] = target: SARS-CoV-2 Omicron BA.2 spike (S) protein, pseudovirus construct (SARS-CoV-2) (UniProt P0DTC2)
# [5] = target: SARS-CoV-2 Victoria spike (S) protein (SARS-CoV-2) (UniProt P0DTC2)
# [6] = target: SARS-CoV-2 Beta spike (S) protein (SARS-CoV-2) (UniProt P0DTC2)
# [7] = target: SARS-CoV-2 Alpha spike (S) protein (SARS-CoV-2) (UniProt P0DTC2)
# [8] = target: SARS-CoV-2 Omicron BA.1.1 spike (S) protein (SARS-CoV-2) (UniProt P0DTC2)
# [9] = target: SARS-CoV-2 Gamma spike (S) protein (SARS-CoV-2) (UniProt P0DTC2)
# [10] = target: SARS-CoV-2 Delta spike (S) protein (SARS-CoV-2) (UniProt P0DTC2)
# [11] = target: SARS-CoV-2 Omicron BA.2 spike (S) protein (SARS-CoV-2) (UniProt P0DTC2)
# [12] = target: SARS-CoV-2 Omicron BA.1 spike (S) protein of the live isolate (SARS-CoV-2) (UniProt P0DTC2)
# [13] = target: SARS-CoV-2 spike (S) protein, Omicron BA.2.3.20 (SARS-CoV-2) (UniProt P0DTC2)
# [14] = target: SARS-CoV-2 spike (S) protein, Omicron BA.2.75 (SARS-CoV-2) (UniProt P0DTC2)
# [15] = target: SARS-CoV-2 spike (S) protein, Omicron BJ.1 (SARS-CoV-2) (UniProt P0DTC2)
# [16] = target: SARS-CoV-2 spike (S) protein, Omicron BA.4/5 (SARS-CoV-2) (UniProt P0DTC2)
# [17] = target: SARS-CoV-2 spike (S) protein, Omicron BA.2.75.2 (SARS-CoV-2) (UniProt P0DTC2)
# [18] = target: SARS-CoV-2 spike (S) protein, Victoria strain (SARS-CoV-2) (UniProt P0DTC2)
# [19] = target: SARS-CoV-2 spike (S) protein, Omicron BA.2 (SARS-CoV-2) (UniProt P0DTC2)
# [20] = target: SARS-CoV-2 spike (S) protein, Omicron BA.4.6 (SARS-CoV-2) (UniProt P0DTC2)
# Chain of Known Antibody D (AZD8895) (VH): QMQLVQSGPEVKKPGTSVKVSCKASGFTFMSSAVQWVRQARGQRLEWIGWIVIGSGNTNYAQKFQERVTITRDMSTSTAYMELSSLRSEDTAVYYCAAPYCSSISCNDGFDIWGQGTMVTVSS
# Chain of Known Antibody D (AZD8895) (VL): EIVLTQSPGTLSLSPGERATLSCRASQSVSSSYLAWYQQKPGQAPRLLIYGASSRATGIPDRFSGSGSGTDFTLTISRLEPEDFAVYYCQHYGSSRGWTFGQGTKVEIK
Substance,"IC50 (ug/ml), pseudovirus [1] [µg/mL]","IC50 (ug/ml), pseudovirus [2] [µg/mL]","IC50 (ug/ml), pseudovirus [3] [µg/mL]","IC50 (ug/ml), pseudovirus [4] [µg/mL]","IC50 (ug/ml), pseudovirus [5] [µg/mL]",further results
Known Antibody B (REGN 10933),> 10,> 10,> 10,> 10,0.001,
Known Antibody I (Ly-CoV-555),> 10,> 10,> 10,> 10,0.002,
Known Antibody A (REGN 10987),> 10,> 10,> 10,0.616,0.002,
AZD7442 (antibody),,,,,,"IC50, authentic virus neutralization [6]: 0.012 µg/mL; IC50, authentic virus neutralization [7]: 0.007 µg/mL; IC50, authentic virus neutralization [8]: 3.82 µg/mL; IC50, authentic virus neutralization [9]: 0.006 µg/mL; IC50, authentic virus neutralization [5]: 0.009 µg/mL; IC50, authentic virus neutralization [10]: 0.005 µg/mL; IC50, authentic virus neutralization [11]: 0.052 µg/mL; IC50, authentic virus neutralization [12]: 0.273 µg/mL"
LY-CoV1404 (bebtelovimab) (antibody),,,,,,"IC50, pseudoviral neutralization [13]: 0.018 µg/mL; IC50, pseudoviral neutralization [14]: 0.002 µg/mL; IC50, pseudoviral neutralization [15]: > 10 µg/mL; IC50, pseudoviral neutralization [16]: 0.002 µg/mL; IC50, pseudoviral neutralization [17]: 0.002 µg/mL; IC50, pseudoviral neutralization [18]: 0.001 µg/mL; IC50, pseudoviral neutralization [19]: 0.001 µg/mL; IC50, pseudoviral neutralization [20]: 0.001 µg/mL"
Known Antibody C (AZD1061),0.308,0.019,> 10,0.008,0.002,
Known Antibody J (Ly-CoV16),> 10,> 10,> 10,> 10,0.014,
AZD7442 (a combination of AZD8895 and AZD1061),,,,,,"IC50, pseudoviral neutralization [13]: 0.025 µg/mL; IC50, pseudoviral neutralization [14]: 0.017 µg/mL; IC50, pseudoviral neutralization [15]: 2.73 µg/mL; IC50, pseudoviral neutralization [16]: 0.065 µg/mL; IC50, pseudoviral neutralization [17]: > 10 µg/mL; IC50, pseudoviral neutralization [18]: 0.001 µg/mL; IC50, pseudoviral neutralization [19]: 0.008 µg/mL; IC50, pseudoviral neutralization [20]: > 10 µg/mL"
Known Antibody H (ADG30),> 10,> 10,> 10,> 10,0.014,
Known Antibody F (ADG10),> 10,> 10,> 10,> 10,0.007,
Known Antibody K (S309),0.094,0.228,0.138,0.638,0.587,
Known Antibody G (ADG20),0.348,> 10,0.253,> 10,0.003,
Known Antibody D (AZD8895),0.246,> 10,0.1,1.33,0.001,
Ly-CoV-555 (antibody),,,,,,"IC50, authentic virus neutralization [6]: > 10 µg/mL; IC50, authentic virus neutralization [7]: 0.009 µg/mL; IC50, authentic virus neutralization [8]: > 10 µg/mL; IC50, authentic virus neutralization [9]: > 10 µg/mL; IC50, authentic virus neutralization [5]: 0.006 µg/mL; IC50, authentic virus neutralization [10]: 8.31 µg/mL; IC50, authentic virus neutralization [11]: > 10 µg/mL; IC50, authentic virus neutralization [12]: > 10 µg/mL"
